Assay results reported in US20260226173A1, “COMPOSITIONS INCLUDING ANTI-WT-1 ANTIBODIES & ANTIGEN BINDING FRAGMENTS AND USES THEREOF” (Memorial Sloan-Kettering Cancer Center, priority 2023, published 2026).

Biological target: HLA-A2-negative cells (HL-60, K562, primary AML 120B, normal cells of HLA-A2-negative donors)
Assay: cell-based or functional assay

B1: ESK2 caTCR clone #34 (AbTCR), expressed on primary T cells (protein)
VH: QVQLVQSGTEVRKPGASLKVSCTTSGYIFTGYYIHWVRQVPGQGLEWMGWINPNSGVTEFAQGFQGRITMTRDTSTSTVYMELSRLTSDDTAVYYCAREGVWGYYDSWGQGTLVTVSS
VL: SSELTQDPAVSVALGQTVRITCQGDSLRSYYASWYQQKPGQAPVLVIYDKNNRPSGIPDRFSGSSSGNTASLTITGAQAEDEADYYCNSRDSSGNHHVVFGGGTKLTVLG
**Q.** How did the Reduction of CD33+ cells (%), AbTCR-CSR #34 T cells (with anti-CD33 CSR), primary AML 120B (HLA-A*02:01 -) turn out when B1 was run?
**A.** The Reduction of CD33+ cells (%), AbTCR-CSR #34 T cells (with anti-CD33 CSR), primary AML 120B (HLA-A*02:01 -) was 2.3%.
